# Patent US8034904B2, “Anti-IGF-I receptor antibody” (Immunogen Inc., priority 2002, dated 2011)
# B1: EM164: murine anti-IGF-I receptor monoclonal antibody, IgG1 with kappa light chain, hybridoma ATCC PTA-4457; heavy SEQ ID NO:7, light SEQ ID NO:8 (antibody)
# heavy: QVQLQQSGAELVKPGASVKLSCKASGYTFTSYWMHWVKQRPGQGLEWIGEINPSNGRTNYNEKFKRKATLTVDKSSSTAYMQLSSLTSEDSAVYYFARGRPDYYGSSKWYFDVWGAGTTVTVSS
# light: DVLMTQTPLSLPVSLGDQASISCRSSQSIVHSNVNTYLEWYLQKPGQSPKLLIYKVSNRFSGVPDRFSGSGSGTDFTLRISRVEAEDLGIYYCFQGSHVPPTFGGGTKLEIKR
# modifications: antibody heavy chain; antibody light chain
# Columns and labels:
# [1] = biological target: T1, IGF-I receptor (Homo sapiens, UniProt P08069); assay: Downregulation of IGF-I receptor in MCF-7 cells (Western blot); type: cell-based
# T1 construct: human breast cancer MCF-7 cells, which expressed IGF-I receptor; endogenous in cells; host or cells: MCF-7 human breast cancer cells
# Description: Therefore, the inhibition of binding of IGF-I and the displacement of bound IGF-I by EM164 antibody at both 4° C. and 37° C. in these short-term experiments may not be explained by the down-regulation of the receptor due to the binding of the EM164 antibody. The mechanism for the potent inhibition of the binding of IGF-I to IGF-I receptor and for the displacement of the pre-bound IGF-I by EM164 antibody is likely to be competition for binding, either through sharing of the binding site or through steric occlusion or through allosteric effects.
# [2] = biological target: T2, human insulin receptor (Homo sapiens, UniProt P06213); assay: FACS binding to cells overexpressing human insulin receptor; details: EM164 50-100 nM
# T2 construct: expressed in transfected cells; host or cells: 3T3-like cells of IGF-I receptor deficient mice
# Description: Incubation of EM164 antibody (50-100 nM) in 100 μL cold FACS buffer (1 mg/mL BSA in Dulbecco's MEM medium) was performed using cells overexpressing IGF-I receptor and using cells overexpressing insulin receptor (2×10^5 cells/mL) in a round-bottom 96-well plate for 1 h. The cells were pelleted by centrifugation and washed with cold FACS buffer by gentle flicking, followed by incubation with goat-anti-mouse-IgG-antibody-FITC conjugate (100 μL; 10 μg/mL in FACS buffer) on ice for 1 h. The cells were pelleted, washed, and resuspended in 120 μL of 1% formaldehyde solution in PBS. The plate was analyzed using a FACSCalibur reader (BD Biosciences).
# [3] = system: HT-3 (cervical) cells; assay: Growth and survival of HT-3 cells (MTT assay); type: cell-based, human; details: 5-10 μg/mL EM164, 10 ng/mL IGF-I
# Description: Several human tumor cell lines were tested in serum-free conditions for their growth and survival response to IGF-I. These cell lines were treated with EM164 antibody in the presence of IGF-I, IGF-II, or serum, and their growth and survival responses were measured using an MTT assay after 2-4 days. Approximately 1500 cells were plated in a 96-well plate in regular medium with serum, which was replaced with serum-free medium the following day (either serum-free RPMI medium supplemented with transferrin and BSA, or phenol-red free medium as specified by Dufourny, B. et al., 1997, J. Biol. Chem., 272, 31163-31171). After one day of growth in serum-free medium, the cells were incubated with about 75 μL of 10 μg/mL antibody for 30 min.-3 h, followed by the addition of 25 μL of IGF-I (or IGF-II or serum) solution to obtain a final concentration of 10 ng/mL IGF-I, or 20 ng/mL IGF-II, or 0.04-10% serum. In some experiments, the cells were stimulated first with IGF-I for 15 min before the addition of EM164 antibody, or both IGF-I and EM164 antibody were added together. The cells were then allowed to grow for another 2-3 days. […] The medium was then removed and replaced by 100 μL DMSO, mixed, and the absorbance of the plate was measured at 545 nm.
# [4] = biological target: biotinylated human IGF-I receptor; assay: ELISA binding titration (Kd) with biotinylated IGF-I receptor
# Description: The wells were next washed with TBS-T buffer and incubated with goat-anti-mouse-IgGH+L-antibody-horseradish peroxidase conjugate (100 μL; 0.5 μg/mL in blocking buffer), followed by washes and detection using ABTS/H2O2 substrate at 405 nm. The value of Kd was estimated by non-linear regression for one-site binding.
# A similar binding titration was carried out using the Fab fragment of EM164 antibody, prepared by papain digestion of the antibody as described by E. Harlow and D. Lane (“Using Antibodies: A Laboratory Manual”; 1999, Cold Spring Harbor Laboratory Press, New York).
# [5] = system: SaOS-2 (osteosarcoma) cells; assay: Growth and survival of SaOS-2 cells (MTT assay); type: cell-based, human
# Description: (§1) Several human tumor cell lines were tested in serum-free conditions for their growth and survival response to IGF-I. These cell lines were treated with EM164 antibody in the presence of IGF-I, IGF-II, or serum, and their growth and survival responses were measured using an MTT assay after 2-4 days. Approximately 1500 cells were plated in a 96-well plate in regular medium with serum, which was replaced with serum-free medium the following day (either serum-free RPMI medium supplemented with transferrin and BSA, or phenol-red free medium as specified by Dufourny, B. et al., 1997, J. Biol. Chem., 272, 31163-31171). After one day of growth in serum-free medium, the cells were incubated with about 75 μL of 10 μg/mL antibody for 30 min.-3 h, followed by the addition of 25 μL of IGF-I (or IGF-II or serum) solution to obtain a final concentration of 10 ng/mL IGF-I, or 20 ng/mL IGF-II, or 0.04-10% serum. In some experiments, the cells were stimulated first with IGF-I for 15 min before the addition of EM164 antibody, or both IGF-I and EM164 antibody were added together. The cells were then allowed to grow for another 2-3 days. A solution of MTT (3-(4,5)-dimethylthiazol-2-yl)-2,5-diphenyltetrazolium bromide; 25 μL of a 5 mg/mL solution in PBS) was then added and the cells were returned to the incubator for 2-3 h. The medium was then removed and replaced by 100 μL DMSO, mixed, and the absorbance of the plate was measured at 545 nm.
# [6] = biological target: T3, IGF-I receptor on NCI-H838 cells (Homo sapiens, UniProt P08069); assay: IGF-I displacement in NCI-H838 lung cancer cells; type: cell-based; details: 4° C., 2 h
# T3 construct: endogenous in cells; host or cells: NCI-H838 lung cancer cells
# Description: (or at 4° C.) for 1 to 2 h. […] (or at 4° C.) for 30 min to 4 h. Cells were then washed with PBS and lysed in lysis buffer containing 1% NP-40 at 4° C.
# [7] = system: SK-LU-1 cells; assay: Growth and survival of SK-LU-1 cells (MTT assay); type: cell-based, human
# Description: as §1
# [8] = system: Human non-small cell lung cancer Calu-6 xenografts; type: in vivo
# Text: Human non-small cell lung cancer Calu-6 xenografts were established in immunodeficient mice by subcutaneous injections of 1×10^7 Calu-6 cells.
# [9] = system: A 375 (melanoma) cells; assay: Growth and survival of A 375 cells (MTT assay); type: cell-based, human
# Description: as §1
# [10] = system: Akt and Erk1/2; assay: IGF-I receptor signaling in SaOS-2 cells (Western blots, phospho-Akt and phospho-Erk1/2); type: cell-based, human
# [11] = biological target: T4, IGF-I receptor on MCF-7 cells (Homo sapiens, UniProt P08069); assay: FACS binding to human breast cancer MCF-7 cells
# T4 construct: human breast cancer MCF-7 cells, which expressed IGF-I receptor; endogenous in cells; host or cells: MCF-7 human breast cancer cells
# Description: The cells were pelleted by centrifugation and washed with cold FACS buffer by gentle flicking, followed by incubation with goat-anti-mouse-IgG-antibody-FITC conjugate (100 μL; 10 μg/mL in FACS buffer) on ice for 1 h. The cells were pelleted, washed, and resuspended in 120 μL of 1% formaldehyde solution in PBS. The plate was analyzed using a FACSCalibur reader (BD Biosciences).
# [12] = 5-10 μg/mL EM164, 10 ng/mL IGF-I
# [13] = 5-10 μg/mL EM164, MTT or colony formation assay
molecule,measurement,setting,value
B1,downregulation of the IGF-I receptor,[1]; 4° C. for 2 h (or 37° C. for 30 min),did not result in a significant downregulation
same,downregulation of the IGF-I receptor,[1]; 37° C. for 2 h,25%
same,fluorescence shift (FACS),[2],insignificant shift
same,Inhibition by EM164 antibody of IGF-I-stimulated growth in serum-free medium,[3],70-90%
same,Kd,"[4]; ELISA titration, non-linear regression for one-site binding, read-out: dissociation constant (Kd)",0.1 nM
same,koff rate,[4]; strong binding signals after prolonged 1-2 day washes,very slow
same,Inhibition by EM164 antibody of IGF-I-stimulated growth in serum-free medium,[5]; [12],100%
same,% Inhibition by EM164 antibody of Growth/survival of cells in 1.25-10% serum,[5]; [13],Yes
same,decrease in the bound biotin-IGF-I,[6],80%
same,Inhibition by EM164 antibody of IGF-I-stimulated growth in serum-free medium,[7]; [12],100%
same,% Inhibition by EM164 antibody of Growth/survival of cells in 1.25-10% serum,[7]; [13],No
same,toxicity based on weights of the mice,"[8]; EM164 6 injections of 0.8 mg/mouse, i.v.",No toxicity
same,growth of tumors,"[8]; established 100 mm^3 Calu-6 xenografts, EM164 0.8 mg/mouse i.v. x6, taxol 15 mg/kg i.p. x5",significantly slowed
same,Inhibition by EM164 antibody of IGF-I-stimulated growth in serum-free medium,[9]; [12],90%
same,% Inhibition by EM164 antibody of Growth/survival of cells in 1.25-10% serum,[9]; [13],No
same,EGF-stimulated phosphorylation of Erk1/2,[10],did not inhibit
same,intracellular IGF-I receptor signaling,[10],almost completely inhibited
same,activation of Akt and Erk1/2,[10]; IGF-I stimulated,inhibited in a dose-dependent manner
same,fluorescence shift (FACS),[11],strong fluorescence shift
